The source of these data is patent US20130344077A1 (VET THERAPEUTICS, published 2013).

In assay [1] the target is target antigen of mab 231 on canine lymphoma cells (canine). Description: FACS on canine lymphoma cells positive for the mab 231 antigen, FITC anti-dog IgG secondary.
The target is the same in assay [2]. Description: FACS on canine lymphoma cells positive for the mab 231 antigen, anti-mouse IgG secondary.

B1: VET118 VET218 anti-canine lymphoma antibody variant (mab 231 variable domains with canine FR4) (antibody)
light: DIQMNQSPSSLSASLGDTITITCHASQNINVWLSWYQQKPGNIPKLLIYKASNLHTGVPSRFSGSGSGTGFTLTISSLQPEDIATYYCQQGQSYPLTFGGGTHLTVLGQPKASPSVTLFPPSSEELGANKATLVCLISDFYPSGVTVAWKADGSPITQGVETTKPSKQSNNKYAASSYLSLTPDKWKSHSSFSCLVTHEGSTVEKKVAPAECS
heavy: EVKLVESGGGLVQPGGSLKLSCATSGFTFSDYYMYWVRQTPEKRLEWVAYISNGGGSTYYPDTVKGRFTISRDNAKNTLYLQMSRLKSEDTAMYYCARHGGYYAMDYWGQGTSVTVSSASTTAPSVFPLAPSCGSTSGSTVALACLVSGYFPEPVTVSWNSGSLTSGVHTFPSVLQSSGLYSLSSMVTVPSSRWPSETFTCNVAHPASKTKVDKPVPKRENGRVPRPPDCPKCPAPEMLGGPSVFIFPPKPKDTLLIARTPEVTCVVVDLDPEDPEVQISWFVDGKQMQTAKTQPREEQFNGTYRVVSVLPIGHQDWLKGKQFTCKVNNKALPSPIERTISKARGQAHQPSVYVLPPSREELSKNTVSLTCLIKDFFPPDIDVEWQSNGQQEPESKYRTTPPQLDEDGSYFLYSKLSVDKSRWQRGDTFICAVMHEALHNHYTQKSLSHSPGK
In assay [1], B1 showed a Binding (%) of 27.2%.

B2: murine anti-canine lymphoma monoclonal antibody mab 231 (ATCC HB-9401) (antibody, V domains shown)
VH: EVKLVESGGGLVQPGGSLKLSCATSGFTFSDYYMYWVRQTPEKRLEWVAYISNGGGSTYYPDTVKGRFTISRDNAKNTLYLQMSRLKSEDTAMYYCARHGGYYAMDYWGQGTSVTVSS
VL: DIQMNQSPSSLSASLGDTITITCHASQNINVWLSWYQQKPGNIPKLLIYKASNLHTGVPSRFSGSGSGTGFTLTISSLQPEDIATYYCQQGQSYPLTFGGGTKLEIK
As to B2, the Binding (%) in assay [2] turned out to be 74.2%.
